Experimental data published in PMC3390797, “Regulation of ASIC channels by a stomatin/STOML3 complex located in a mobile vesicle pool in sensory neurons” (Open Biology, 2012).

T1: Strep-tagged STOML3-AmCyan1 (stomatin-like protein-3, wild type) (mouse, UniProt Q6PE84 1-287)
T1 construct: Stomatin-like protein-3 (STOML3), mouse; Made from the STOML3-EGFP plasmid 'described previously' by cloning into pAmCyan1-N1 with a Strep tag; also called STOML3-Strep; STOML3-CFP; source: CHO cells, transiently transfected; in lysate (co-IP) and in live cells (FRET)
T1 sequence (looked up): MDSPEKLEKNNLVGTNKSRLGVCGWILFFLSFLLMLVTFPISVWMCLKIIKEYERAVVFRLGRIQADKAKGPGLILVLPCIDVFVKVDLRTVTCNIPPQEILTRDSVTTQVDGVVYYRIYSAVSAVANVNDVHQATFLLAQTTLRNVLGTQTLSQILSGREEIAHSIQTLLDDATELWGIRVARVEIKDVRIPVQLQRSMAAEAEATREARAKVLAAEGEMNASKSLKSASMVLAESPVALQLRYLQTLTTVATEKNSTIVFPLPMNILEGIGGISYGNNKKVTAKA


Molecular target: T1, Strep-tagged STOML3-AmCyan1 …
Test: FRET or BRET; three-cube FRET imaging of CHO cells co-expressing the AmCyan1 (CFP) and EYFP fusions; apparent FRET efficiency, calibrated with two fluorophore-tandem constructs
Conditions: partners not purified

| Binder | apparent FRET efficiency (mean, cell-averaged) |
| --- | --- |
| EYFP-tagged ASIC2a (natural protein, rat, UniProt Q62962-1 1-512, looked up, also called ASIC2a-YFP; source: CHO cells, transiently transfected, in live cells) MDLKESPSEGSLQPSSIQIFANTSTLHGIRHIFVYGPLTIRRVLWAVAFVGSLGLLLVESSERVSYYFSYQHVTKVDEVVAQSLVFPAVTLCNLNGFRFSRLTTNDLYHAGELLALLDVNLQIPDPHLADPTVLEALRQKANFKHYKPKQFSMLEFLHRVGHDLKDMMLYCKFKGQECGHQDFTTVFTKYGKCYMFNSGEDGKPLLTTVKGGTGNGLEIMLDIQQDEYLPIWGETEETTFEAGVKVQIHSQSEPPFIQELGFGVAPGFQTFVATQEQRLTYLPPPWGECRSSEMGLDFFPVYSITACRIDCETRYIVENCNCRMVHMPGDAPFCTPEQHKECAEPALGLLAEKDSNYCLCRTPCNLTRYNKELSMVKIPSKTSAKYLEKKFNKSEKYISENILVLDIFFEALNYETIEQKKAYEVAALLGDIGGQMGLFIGASLLTILELFDYIYELIKEKLLDLLGKEEEEGSHDENMSTCDTMPNHSETISHTVNVPLQTALGTLEEIAC | 13.4 ± 0.52% |
| EYFP-tagged ASIC1b (natural protein, mouse, UniProt Q6NXK8-2 1-559, looked up, source: CHO cells, transiently transfected, in live cells) MPIQIFCSVSFSSGEEAPGSMGDIWGPHHHHRQQQDSSESEEEEEKEKESGMELDEGDSPRDLVAFANSCTLHGASHVFVEGGPGPRQALWAVAFVIALGAFLCQVGDRVAYYLSYPHVTLLDEVATTELVFPAVTFCNTNAVRLSQLSYPDLLYLAPMLGLDESDDPGVPLAPPGPEAFSGEPFNLHRFYNRSCHRLEDMLLYCSYCGGPCGPHNFSVVFTRYGKCYTFNSGQDGRPRLKTMKGGTGNGLEIMLDIQQDEYLPVWGETDETSFEAGIKVQIHSQDEPPFIDQLGFGVAPGFQTFVSCQEQRLIYLPSPWGTCNAVTMDSDFFDSYSITACRIDCETRYLVENCNCRMVHMPGDAPYCTPEQYKECADPALDFLVEKDQEYCVCEMPCNLTRYGKELSMVKIPSKASAKYLAKKFNKSEQYIGENILVLDIFFEVLNYETIEQKKAYEIAGLLGDIGGQMGLFIGASILTVLELFDYAYEVIKHRLCRRGKCQKEAKRNSADKGVALSLDDVKRHNPCESLRGHPAGMTYAANILPHHPARGTFEDFTC | 13.9 ± 0.73% |
| EYFP-tagged ASIC1a (natural protein, mouse, UniProt Q6NXK8-1 1-526, looked up, source: CHO cells, transiently transfected, in live cells) MELKTEEEEVGGVQPVSIQAFASSSTLHGLAHIFSYERLSLKRALWALCFLGSLAVLLCVCTERVQYYFCYHHVTKLDEVAASQLTFPAVTLCNLNEFRFSQVSKNDLYHAGELLALLNNRYEIPDTQMADEKQLEILQDKANFRSFKPKPFNMREFYDRAGHDIRDMLLSCHFRGEACSAEDFKVVFTRYGKCYTFNSGQDGRPRLKTMKGGTGNGLEIMLDIQQDEYLPVWGETDETSFEAGIKVQIHSQDEPPFIDQLGFGVAPGFQTFVSCQEQRLIYLPSPWGTCNAVTMDSDFFDSYSITACRIDCETRYLVENCNCRMVHMPGDAPYCTPEQYKECADPALDFLVEKDQEYCVCEMPCNLTRYGKELSMVKIPSKASAKYLAKKFNKSEQYIGENILVLDIFFEVLNYETIEQKKAYEIAGLLGDIGGQMGLFIGASILTVLELFDYAYEVIKHRLCRRGKCQKEAKRNSADKGVALSLDDVKRHNPCESLRGHPAGMTYAANILPHHPARGTFEDFTC | 14.4 ± 0.51% |

The next lines start with the values.

| apparent FRET efficiency (mean, cell-averaged) | Binder |
| --- | --- |
| 15.5 ± 0.67% | EYFP-tagged ASIC3 (natural protein, rat, UniProt O35240 1-533, looked up, source: CHO cells, transiently transfected, in live cells) MKPRSGLEEAQRRQASDIRVFASSCTMHGLGHIFGPGGLTLRRGLWATAVLLSLAAFLYQVAERVRYYGEFHHKTTLDERESHQLTFPAVTLCNINPLRRSRLTPNDLHWAGTALLGLDPAEHAAYLRALGQPPAPPGFMPSPTFDMAQLYARAGHSLEDMLLDCRYRGQPCGPENFTVIFTRMGQCYTFNSGAHGAELLTTPKGGAGNGLEIMLDVQQEEYLPIWKDMEETPFEVGIRVQIHSQDEPPAIDQLGFGAAPGHQTFVSCQQQQLSFLPPPWGDCNTASLDPDDFDPEPSDPLGSPRPRPSPPYSLIGCRLACESRYVARKCGCRMMHMPGNSPVCSPQQYKDCASPALDAMLRKDTCVCPNPCATTRYAKELSMVRIPSRASARYLARKYNRSESYITENVLVLDIFFEALNYEAVEQKAAYEVSELLGDIGGQMGLFIGASLLTILEILDYLCEVFQDRVLGYFWNRRSAQKRSGNTLLQEELNGHRTHVPHLSLGPRPPTTPCAVTKTLSASHRTCYLVTRL |
| 13.1 ± 0.49% | EYFP-tagged ASIC2b (natural protein, rat, UniProt Q62962-2 1-563, looked up, source: CHO cells, transiently transfected, in live cells) MSRSGGARLPATALSGPGRFRMAREQPAPVAVAAARQPGGDRSGDPALQGPGVARRGRPSLSRTKLHGLRHMCAGRTAAGGSFQRRALWVLAFCTSLGLLLSWSSNRLLYWLSFPSHTRVHREWSRQLPFPAVTVCNNNPLRFPRLSKGDLYYAGHWLGLLLPNRTARPLVSELLRGDEPRRQWFRKLADFRLFLPPRHFEGISAAFMDRLGHQLEDMLLSCKYRGELCGPHNFSSVFTKYGKCYMFNSGEDGKPLLTTVKGGTGNGLEIMLDIQQDEYLPIWGETEETTFEAGVKVQIHSQSEPPFIQELGFGVAPGFQTFVATQEQRLTYLPPPWGECRSSEMGLDFFPVYSITACRIDCETRYIVENCNCRMVHMPGDAPFCTPEQHKECAEPALGLLAEKDSNYCLCRTPCNLTRYNKELSMVKIPSKTSAKYLEKKFNKSEKYISENILVLDIFFEALNYETIEQKKAYEVAALLGDIGGQMGLFIGASLLTILELFDYIYELIKEKLLDLLGKEEEEGSHDENMSTCDTMPNHSETISHTVNVPLQTALGTLEEIAC |
| 15.4 ± 0.65% | EYFP-tagged ASIC4 (natural protein, mouse, UniProt Q7TNS7 1-539, looked up, source: CHO cells, transiently transfected, in live cells) MPIEIVCKIKFAEEDAKPKEKEAGDEQSLLGAAQGPAAPRDLATFASTSTLHGLGRACGPGPHGLRRTLWALALLTSLAAFLYQAASLARGYLTRPHLVAMDPAAPAPVAGFPAVTLCNINRFRHSALSDADIFHLANLTGLPPKDRDGHRAAGLRYPEPDMVDILNRTGHQLADMLKSCNFSGHHCSASNFSVVYTRYGKCYTFNADPQSSLPSRAGGMGSGLEIMLDIQQEEYLPIWRETNETSFEAGIRVQIHSQEEPPYIHQLGFGVSPGFQTFVSCQEQRLTYLPQPWGNCRAESELREPELQGYSAYSVSACRLRCEKEAVLQRCHCRMVHMPGNETICPPNIYIECADHTLDSLGGGSEGPCFCPTPCNLTRYGKEISMVKIPNRGSARYLARKYNRNETYIRENFLVLDVFFEALTSEAMEQQAAYGLSALLGDLGGQMGLFIGASILTLLEILDYIYEVSWDRLKRVWRRPKTPLRTSTGGISTLGLQELKEQSPCPSRGRAEGGGASSLLPNHHHPHGPPGSLFEDFAC |
